According to the supplement of paper PMC10567573:

B1: CLPTM1 (parent)
chain: MNLHVYISEHEHFTDFNATSALFW
B2: VDR (parent)
chain: LIKFQVGLKKLNLHEEEHVLLMAI

Variants of: B1
Test: protein stability index of a GFP-peptide fusion (GPS, HEK-293T) (PSI 1-6); higher = more stable
Conditions: c terminus: a fixed tail appended
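Further: lentivirally expressed fusions sorted by FACS into six bins by GFP to DsRed ratio, PSI derived from sequencing read proportions per bin multiplied by bin number.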

Protein stability index: each site, then its substitutions
S20: V 2.29; T 4.14; K 3.57; C 2.75; D 4.08; Y 3.45; G 2.69; E 2.37; R 2.1; I 2.69; H 4.53; Q 2.59; N 3.39; F 2.51; M 2.64; A 4.95
L22: T 3.54; Q 3.16; R 1.1; G 4; I 1.59; C 4.78; A 4.09; S 1.97; H 2.6; Y 2.2
T19: V 1.89; E 2.59; R 2.89; D 2.48; H 2.99; W 1.67; N 3.66; I 3.09; C 2.92; M 1.52; Y 2.08
F23: Q 2.56; P 2.49; C 2.69; H 3.78; V 2.13; L 5.95; Y 5.1; N 2.46; I 3.19; D 3.62; R 2.46; E 1.81
W24: R 2.96; K 1.88; E 4.09; D 3.34; S 3.64; H 1.75; T 3.19; P 2.76; Q 2.2; N 2.98; L 4.15; Y 2.95; I 1.93; C 1.83; F 4.25
A18: S 2.46; T 1.84; W 2.76; V 2.92; R 3.55
A21: G 3.69; T 2.67; F 1.95; E 2.62; C 3.19; K 3.78; I 2.59; V 2.4; H 2.09; N 2.35

Variants of: B2
Test: as above
Conditions: c terminus: a fixed tail appended

Protein stability index: each site, then its substitutions
G7: H 3.58; K 2.84; L 2.4; D 2.61; Q 3.23; W 3.47; M 3.9; F 1.75; P 1.3; T 2.82; C 1.72; A 2.15; Y 2.11; S 2.46
H14: I 2.28; N 3.26; Y 2.93; K 2.66; P 2.53; C 2.28; E 4.65; G 4.41; D 2.21; Q 2.43
N12: F 2.51; T 2.92; S 2.5; I 2.19; G 2.62; E 3.9
I2: Q 3.14; D 2.05; V 3; H 1.87; N 2.31; M 3.15; A 3.06; L 3.02; Y 2.93; P 2.73; F 2.27; T 2.77; R 4.27
V6: K 2.01; L 2.91; C 3.2; S 2.98; M 3.76; N 2.61; W 1.54; Q 1.74; A 2.24; P 2.85; D 1.47; F 3.19; T 2.73; H 4.18; G 2.2
E16: R 2.24; Q 1.57; Y 1.43; N 2.09; T 2.81; C 3.87; P 3.81; I 1.97; L 3.15; K 1.77
L20: Y 2.9; V 1.01; F 2.29; G 4.03; E 2.24; A 2.05; C 3.71; T 2.4; I 2.83; P 2.31; D 1.19; M 2.15; Q 1.81; K 1.91; H 1.86
K3: Q 1.21; T 2.97; P 1.89; G 3.98; W 2.91; D 2.21
L13: E 1.4; Q 3.27; D 1.74; M 3.14; S 3.54; N 3.72; P 2.73; K 3.2; R 3.69; H 2.3; G 1.88; I 2.39; T 3.36; W 2.81; F 1.7; V 3.02
L21: V 4.64; D 1.85; G 2.76; P 1.69; Q 2.02; N 1.68; C 3.18; M 2.45; Y 2.92; K 3.43; S 2.08
H18: I 2.93; M 3.56; K 3.13; A 4.04; E 2.33; T 1.12; N 3.21
F4: M 1.75; C 3; A 2.1; T 1.48; I 3.75; H 1.91; K 3.04; Q 2.09; S 3.39; L 4.2; R 2.72; D 3.17; E 2.15; P 1.31; Y 2.64; N 4.44; W 1.5
M22: E 1.15; D 1.17; C 2.61; A 3.3
E17: L 1.8; H 2.34; F 1.95; M 2.37; D 2.28; Q 2.7; N 2.3; P 2.91; R 3.74; Y 3.14
L8: D 3.48; S 3.06; W 1.89; T 2.62; M 3.04; I 3.67; F 3.06; N 2.82; K 2.85; H 2.3; P 2.31; Q 1.56
L11: K 2.98; F 2.14; D 2.78; C 3.35; Y 2.28; E 3.86; S 2.29; T 2.03; A 2.56; I 3.2; R 1.3; M 2.93; W 2.1; P 2.34; Q 2
L1: V 2.24; H 2.73; D 2.9; N 2.01; S 3.27; I 3.18; F 2.01; E 1.56; M 3.33; Q 2.25
K9: D 2.79; G 3.2; A 2.27; M 3.2; L 2.97; S 3.17; I 1.03; F 3.38; N 1.61; T 3.39; C 5.08; Y 4.29; P 3.16; Q 3.62; R 2.63; V 3.6; H 1.59
Q5: V 2.77; K 2.89; D 4.34; N 1.79; P 2.97; L 3.08; F 2.56; W 3.59; H 2.65
E15: Q 2.77; K 2.5; W 3.87; C 1.99; V 2.61; S 2.96; T 3.96; G 2.92; L 3.71; A 2.52; F 2.77; P 2.38; Y 1.94
V19: R 2.89; I 1.93; D 3.54; C 1.63; Q 3.04; N 1.59; G 1.4; F 2.52; K 1.99; T 2.52; A 1.58; W 1.04; H 3.1
K10: N 1.9; C 4.27; D 3.4; M 2.47; F 3.36; E 2.11; A 3.24; T 2.23; V 1.83; P 3.19; L 4.27; H 1.38
